In article PMC3399532 (Prion, 2012):

Molecular target: truncated MoPrP(89–230) (mouse, UniProt P04925 89-230)
Experiment: ELISA

B1: mouse (Mo) Dpl (26–155) (domain or fragment)
chain: ARGIKHRFKWNRKVLPSSGGQITEARVAENRPGAFIKQGRKLDIDFGAEGNRYYAANYWQFPDGIYYEGCSEANVTKEMLVTSCVNATQAANQAEFSREKQDSKLHQRVLWRLIKEICSAKHCDFWLERG
B1: binds.
